B1: Azoarcus group I ribozyme (parent)
chain: GUGCCUUGCGCCGGGAAACCACGCAAGGGAUGGUGUCAAAUUCGGCGAAACCUAAGCGCCCGCCCGGGCGUAUGGCAACGCCGAGCCAAGCUUCGGCGCCUGCGCCGAUGAAGGUGUAGAGACUAGACGGCACCCACCUAAGGCAAACGCUAUGGUGAAGGCAUAGUCCAGGGAGUGGCGAAAGUCACACAAACCGG

The variants in the series derive from B1. Nature of the series: reverse-splicing fitness (ratio to wild type); higher = more active; in vitro selection; Mg2+ level not given. A digest of the protocol: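 An in vitro group I ribozyme library with randomized positions was T7-transcribed and gel-purified. In triplicate, 10 pmol RNA in EPPS pH 7.5 was reacted with 50 pmoles of a 30-nt RNA substrate for 1 h at 37 °C across several added MgCl2 levels (1–48 mM), then stopped with EDTA. Products were reverse transcribed from a substrate-complementary primer, PCR-amplified and sequenced (HiSeq 4000). Fitness is a variant's read proportion after selection over that before, normalised to wild type.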
C82U A120C C150U C169U U176C: the reverse-splicing fitness is 0.0177.

Consider C82U A120G A145G C150A C169G U176C, for which the reverse-splicing fitness was 0.0255.

Take C82U A120G A145G C150A C169G U176G: the reverse-splicing fitness is 0.00413.

On to C82U A120G A145G C150A C169G U176A, for which the reverse-splicing fitness turned out to be 0.0157.

As for C82U A120G C169A, the reverse-splicing fitness turned out to be 0.0184.

In the case of C82U A120G A145G C169A U176A, the reverse-splicing fitness stood at 0.0221.

Take C82U A120G A145G C169A U176C: the reverse-splicing fitness amounted to 0.0335.

C82U A120G A145G C169A U176G: the reverse-splicing fitness was 0.00333.

As to C82U A120G A145C C150U C169A, the reverse-splicing fitness turned out to be 0.00913.

Consider C82U A120G A145C C150U C169G, for which the reverse-splicing fitness amounted to 0.00988.

Consider C82U A120G A145C C150U C169U, for which the reverse-splicing fitness was 0.00884.

In the case of C82U A120G C150U, the reverse-splicing fitness amounted to 0.0161.

For C82U A120G C150G, the reverse-splicing fitness was found to be 0.00711.

For the variant C82U A120G C150A, the reverse-splicing fitness was found to be 0.00924.

For C82U A120G A145U C150U C169A U176G, the reverse-splicing fitness turned out to be 0.00326.

In the case of C82U A120G A145U C150U C169A U176A, the reverse-splicing fitness was 0.0106.

Take C82U A120G A145U C150U C169A U176C: the reverse-splicing fitness was 0.0085.

Turning to C82U A120C C150A C169A U176A, the reverse-splicing fitness amounted to 0.0169.

Consider C82U A120C C150A C169A U176C, for which the reverse-splicing fitness stood at 0.0132.

Regarding C82U A120C C150A C169A U176G, the reverse-splicing fitness turned out to be 0.00426.

As to C82U A120C A145U C169G U176A, the reverse-splicing fitness amounted to 0.00692.

Take C82U A120C A145U C169G U176C: the reverse-splicing fitness is 0.00836.

Take C82U A120C A145U C169G U176G: the reverse-splicing fitness turned out to be 0.00338.

Regarding C82U A120G A145C C169G, the reverse-splicing fitness came to 0.0218.

C82U A120G A145C C169A: the reverse-splicing fitness worked out at 0.014.

As to C82U A120G A145C C169U, the reverse-splicing fitness came out at 0.0172.

Consider C82U A120G A145G C150G C169A U176G, for which the reverse-splicing fitness was determined as 0.00685.

For C82U A120G A145G C150G C169A U176C, the reverse-splicing fitness stood at 0.0121.

As to C82U A120G A145G C150G C169A U176A, the reverse-splicing fitness was 0.0129.

For C82U A120G A145G U176G, the reverse-splicing fitness stood at 0.00485.

Take C82U A120G A145G U176C: the reverse-splicing fitness was determined as 0.019.

With C82U A120G A145G U176A, the reverse-splicing fitness came to 0.0128.

Regarding C82U A120G A145G C150A C169U, the reverse-splicing fitness was found to be 0.0101.

Turning to C82U A120G A145G C150A C169G, the reverse-splicing fitness was determined as 0.0101.

As to C82U A120G A145G C150A C169A, the reverse-splicing fitness is 0.0113.

On to C82U A120G C150U C169G, for which the reverse-splicing fitness amounted to 0.0167.

In the case of C82U A120G C150U C169U, the reverse-splicing fitness stood at 0.0137.

For the variant C82U A120G C150U C169A, the reverse-splicing fitness amounted to 0.0144.

With C82U A120G A145G C150U C169G U176A, the reverse-splicing fitness amounted to 0.0132.

C82U A120G A145G C150U C169G U176G: the reverse-splicing fitness came to 0.00383.

For C82U A120G A145G C150U C169G U176C, the reverse-splicing fitness came out at 0.0207.

With C82U A120C C150G C169U, the reverse-splicing fitness is 0.00921.

C82U A120C C150G C169G: the reverse-splicing fitness amounted to 0.00683.

In the case of C82U A120C C150G C169A, the reverse-splicing fitness is 0.00883.

Turning to C82U A120G A145C C150A C169G U176G, the reverse-splicing fitness came out at 0.00402.

C82U A120G A145C C150A C169G U176C: the reverse-splicing fitness came to 0.0125.

In the case of C82U A120G A145C C150A C169G U176A, the reverse-splicing fitness worked out at 0.0215.

For the variant C82U A120G A145U C150G C169A, the reverse-splicing fitness was determined as 0.00915.

In the case of C82U A120G A145U C150G C169U, the reverse-splicing fitness is 0.00878.

For C82U A120G A145U C150G C169G, the reverse-splicing fitness was determined as 0.00815.

With C82U A120C C150U C169G U176G, the reverse-splicing fitness was 0.0038.

With C82U A120C C150U C169G U176C, the reverse-splicing fitness amounted to 0.0117.

On to C82U A120C C150U C169G U176A, for which the reverse-splicing fitness is 0.0126.

As to C82U A120G A145C C169U U176A, the reverse-splicing fitness came to 0.0224.

As to C82U A120G A145C C169U U176C, the reverse-splicing fitness amounted to 0.0127.

Consider C82U A120G A145C C169U U176G, for which the reverse-splicing fitness was found to be 0.00314.

As for C82U A120G A145G C169G U176C, the reverse-splicing fitness came to 0.0317.

As to C82U A120G A145G C169G U176G, the reverse-splicing fitness was 0.00333.

With C82U A120G A145G C169G U176A, the reverse-splicing fitness is 0.0223.

Regarding C82U A120G A145C C150A C169U U176G, the reverse-splicing fitness was 0.0041.

As for C82U A120G A145C C150A C169U U176A, the reverse-splicing fitness was 0.0218.

In the case of C82U A120G A145C C150A C169U U176C, the reverse-splicing fitness came out at 0.00972.

Take C82U A120G C150A C169G U176G: the reverse-splicing fitness is 0.00456.

Consider C82U A120G C150A C169G U176C, for which the reverse-splicing fitness is 0.0214.

Take C82U A120G C150A C169G U176A: the reverse-splicing fitness was determined as 0.018.

For the variant C82U A120G A145G, the reverse-splicing fitness was 0.0245.

In the case of C82U A120G A145U, the reverse-splicing fitness was found to be 0.0237.

Take C82U A120G A145C: the reverse-splicing fitness was found to be 0.0203.

For the variant C82U A120C U176C, the reverse-splicing fitness stood at 0.0725.

C82U A120C U176A: the reverse-splicing fitness turned out to be 0.048.

With C82U A120C U176G, the reverse-splicing fitness stood at 0.00931.

In the case of C82U A120G A145U C169A, the reverse-splicing fitness was 0.017.

Take C82U A120G A145U C169G: the reverse-splicing fitness was found to be 0.0232.

For the variant C82U A120G A145U C169U, the reverse-splicing fitness is 0.0182.

As for C82U A120G A145G C150U C169A U176G, the reverse-splicing fitness came out at 0.00486.

Regarding C82U A120G A145G C150U C169A U176A, the reverse-splicing fitness stood at 0.0153.

As for C82U A120G A145G C150U C169A U176C, the reverse-splicing fitness amounted to 0.0154.

Regarding C82U A120C C169G U176A, the reverse-splicing fitness was 0.0123.

As for C82U A120C C169G U176G, the reverse-splicing fitness amounted to 0.00419.

As to C82U A120C C169G U176C, the reverse-splicing fitness was 0.0125.

On to C82U A120G A145C C150U U176G, for which the reverse-splicing fitness came out at 0.00347.

Take C82U A120G A145C C150U U176A: the reverse-splicing fitness turned out to be 0.00845.

In the case of C82U A120G A145C C150U U176C, the reverse-splicing fitness amounted to 0.00744.

For the variant C82U A120G A145C C150G C169G, the reverse-splicing fitness is 0.00837.

For the origin of these results see the RNAGym collection of RNA variant scans (doi:10.1093/molbev/msab373).
